Measurements published in patent publication US20210403582A1 (JACOBIO PHARMACEUTICALS, published 2021).
Like-named read-outs stand apart in the source and are kept apart here.

Experiments:
human LIF protein [1] = target: T1, human LIF protein (human, UniProt P15018 23-202); experiment: KinExA 4000, solution equilibrium
T1 construct: Bought recombinant protein (Sino Biological / Yiqiao Shenzhou 14890-HNAH) in most assays; also called recombinant human LIF protein; rhLIF
Procedure: The affinity of the purified monoclonal antibodies to the recombinant human LIF protein was determined by KinExA 4000. 200 mg PMMA hard beads were added with 30 μg of the 38E10E1C11 antibody and additional adding coating solution to 1 mL. The buffer composition is 1 xPBS, pH 7.4, 0.02% NaN3. And make sure that the beads were completely suspended in the solution, and rotated for 2 h at room temperature. The beads were naturally settled or quickly centrifuged at low speed. The supernatant was removed and the beads were blocked with PBS containing 1% BSA. 15 mL of 300 pM antigen solution and 15 mL of 240 pM Ab2 (38E10E1C11) solution were prepared. 0.6 mL of 300 pM antigen and 0.6 mL of 240 pM antibody Ab2 (38E10E1C11) were put into different sample tubes separately. The samples in the two tubes were well mixed and put together into one tube, the concentration of the antigen was 150 pM and the concentration of antibody Ab2 (38E10E1C11) was 120 pM at this time, and the solution was placed in the corresponding position in the tube holder. […] Each group was added with 1 μg/L1 Streptavidin Protein, DyLight 650 Solution, and was detected on machine set to incubate for 24 hours. In the KinExatm Pro software, the equilibrium dissociation constant (Kd) for n-curve analysis was calculated by the unknown ligand model, and the results are shown in FIG. 4.

[2] = target: recombinant mouse LIF protein (mouse, UniProt P09056 24-203); experiment: ELISA, mouse LIF coated at 1 µg/mL, A450
Procedure: The recombinant mouse LIF protein (purchased from ACRO Biosystems) was diluted to 1 μg/mL, and was coated on the enzyme label plate, 100 μL of protein was added into every well, and incubated overnight in 4° C. The enzyme label plates were taken out next day, and the liquid was discarded, and were washed with PBST three times and blocked with 2% BSA in PBS for 1 h at room temperature, then washed with PBST three times, and added anti-human LIF antibodies 38E10E1C11, 5D8 and P36-033 at different concentrations and incubated for 1 h at room temperature. The liquid was discarded, and the plates were washed with PBST four times. The plates were added with HRP-labeled goat anti-mouse Fab antibody or goat anti-human FC antibody and incubated for 1 h at room temperature. Then the liquid was discarded, and the plates were washed four times with PBST and incubated with TMB colored solution in 10 minutes at room temperature. Stop color development by adding 2 mol/L H₂SO₄, and the absorption value at 450 nm is quantitated using an automated plate photometer, and the results were shown in FIG. 2.

[3] = target: recombinant machin LIF protein (machin, UniProt A0A2K5UCA8 23-202); experiment: ELISA, machin LIF coated at 0.5 µg/mL, A450
Procedure: The recombinant machin LIF protein (purchased from Sino biological) was diluted to 0.5 μg/mL, and was coated on the enzyme label plate, 100 μL of protein was added into every well, and incubated overnight in 4° C. The enzyme label plates were taken out next day, and the liquid was discarded, and were washed with PBST three times and blocked with 2% BSA in PBS for 1 h at room temperature, then washed with PBST three times, and added anti-human LIF antibodies 38E10E1C11, 5D8 and P36-033 at different concentrations and incubated for 1 h at room temperature. The liquid was discarded, and the plates were washed with PBST four times. The plates were added with HRP-labeled goat anti-mouse Fab antibody or goat anti-human FC antibody and incubated for 1 h at room temperature. Then the liquid was discarded, and the plates were washed with PBST four times and incubated with TMB colored solution in 10 minutes at room temperature. Stop color development by adding 2 mol/L H₂SO₄, and the absorption value at 450 nm is quantitated using an automated plate photometer, and the results were shown in FIG. 3.

human IL-6 = human IL-6 (human, UniProt P05231 30-212, limits assumed); experiment: ELISA, human IL-6 coated at 1 µg/mL, HRP goat anti-mouse Fab, A450
Procedure: (§1) After washed four times with PBST, HRP-labeled goat anti-mouse Fab secondary antibodies were added and incubated at room temperature for 1 h. After washed four times with PBST, TMB colored solution was added and color developing for 10 min at room temperature. The absorption value at 450 nm was read by the enzyme maker. The data were analyzed and plotted using Origin pro 9 software.

human CNTF = target: T2, human CNTF (human, UniProt P26441 1-200, limits assumed); experiment: ELISA, human CNTF coated at 1 µg/mL, HRP goat anti-mouse Fab, A450
T2 sequence (looked up): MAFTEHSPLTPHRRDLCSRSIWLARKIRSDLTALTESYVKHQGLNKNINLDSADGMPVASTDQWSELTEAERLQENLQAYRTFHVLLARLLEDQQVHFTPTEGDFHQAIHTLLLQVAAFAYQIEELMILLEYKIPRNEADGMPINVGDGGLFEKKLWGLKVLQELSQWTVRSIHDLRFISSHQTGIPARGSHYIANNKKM
Procedure: as §1

human LIF protein [4] = target: T1, human LIF protein; experiment: competition ELISA, LIF coated, competitor LIFR-Fc 0.6125 ug/mL detected with anti-human Fc
human LIF protein [5] = target: T1, human LIF protein; experiment: competition ELISA: human LIF coated at 1 µg/mL, LIFR-Fc 0.6125 µg/mL added together with the antibody, A450
Procedure: (§2) The recombinant human LIF protein was coated on the enzyme label plate at a concentration of 1 μg/mL, LIFR protein (expressed fusedly with human FC) at a concentration of 0.6125 μg/mL was added (50 μL/well), and the anti-human LIF antibodies 38E10E1C11, P36-033 and 38E10E1C11R which is recombinantly expressed by CHO cells (SEQ ID NOs: 41 and 43) at different concentrations simultaneously were added separately (50 μL/well) and incubated for 2 h at room temperature. After washed four times with PBST, incubated with HRP-labeled goat anti-mouse FC secondary antibody for 1 h at room temperature. Then the plates were washed four times with PBST and added with TMB coloured solution in for 10 minutes. The absorption value at 450 nm is quantitated using an enzyme-labelling measuring instrument, and the data was analyzed and plotted using Origin pro 9 software.

human LIF protein [6] = target: T1, human LIF protein; experiment: as above; remark: listed apart in the source
Procedure: as §2

T1 sequence (P15018 23-202 limits assumed): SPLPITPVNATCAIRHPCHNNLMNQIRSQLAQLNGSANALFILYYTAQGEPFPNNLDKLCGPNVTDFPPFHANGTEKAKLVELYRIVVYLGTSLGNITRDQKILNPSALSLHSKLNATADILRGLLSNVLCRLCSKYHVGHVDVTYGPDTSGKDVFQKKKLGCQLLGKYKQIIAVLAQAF
human IL-6, sequence (P05231 30-212 limits assumed): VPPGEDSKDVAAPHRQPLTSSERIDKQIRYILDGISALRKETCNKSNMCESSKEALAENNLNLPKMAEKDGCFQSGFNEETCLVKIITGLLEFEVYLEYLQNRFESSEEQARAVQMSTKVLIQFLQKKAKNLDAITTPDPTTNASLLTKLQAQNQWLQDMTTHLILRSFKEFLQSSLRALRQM
recombinant machin LIF protein, sequence (A0A2K5UCA8 entry or part of it limits assumed): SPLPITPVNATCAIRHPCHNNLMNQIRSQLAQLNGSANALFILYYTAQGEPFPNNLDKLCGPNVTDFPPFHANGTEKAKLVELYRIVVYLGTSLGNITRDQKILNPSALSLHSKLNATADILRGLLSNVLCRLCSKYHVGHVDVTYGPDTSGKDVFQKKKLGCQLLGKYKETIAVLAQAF

Kd (human LIF protein [1]): 4.52 pM
binding result [2]: no binding (tested: 100 µg/mL (log 2))
EC50 (read off the curve) [3]: ~0.07 µg/mL
binding result (human IL-6): no binding (tested: 25 ug/ml)
binding result (human CNTF): no binding (tested: 25 ug/ml)
IC50 (human LIF protein [4]): 0.074 µg/mL
IC50 (read off the curve) (human LIF protein [5]): ~0.1 µg/mL
IC50 (read off the curve) (human LIF protein [6]): ~0.3 µg/mL
B1: 38E10E1C11 antibody (antibody, mouse IgG1, kappa)
heavy: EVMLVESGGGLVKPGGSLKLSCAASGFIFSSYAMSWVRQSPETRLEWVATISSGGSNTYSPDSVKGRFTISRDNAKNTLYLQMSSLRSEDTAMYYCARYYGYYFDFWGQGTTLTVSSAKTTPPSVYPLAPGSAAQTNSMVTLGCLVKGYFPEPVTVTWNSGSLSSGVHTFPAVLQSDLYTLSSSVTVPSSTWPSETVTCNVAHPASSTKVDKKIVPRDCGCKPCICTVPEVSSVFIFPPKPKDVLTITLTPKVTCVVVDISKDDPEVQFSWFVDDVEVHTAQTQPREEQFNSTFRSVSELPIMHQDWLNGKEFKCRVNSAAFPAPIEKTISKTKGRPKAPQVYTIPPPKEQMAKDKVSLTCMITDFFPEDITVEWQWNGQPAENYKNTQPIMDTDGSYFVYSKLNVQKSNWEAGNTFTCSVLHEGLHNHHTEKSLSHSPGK
light: DIHMTQSPASLSASVGETVTITCRASENIYSYLAWYQQKQGKSPQLLVYNAKTLAEGVPSRFSGSGSGTQFSLKINSLQPEDFGSYYCQHHYVTPLTFGAGTKLELKRADAAPTVSIFPPSSEQLTSGGASVVCFLNNFYPKDINVKWKIDGSERQNGVLNSWTDQDSKDSTYSMSSTLTLTKDEYERHNSYTCEATHKTSTSPIVKSFNRNEC
notes: Mouse IgG1, kappa light chain; also called 38E10E1C11 mAb; mAb38E10E1C11
